According to article PMC6332120:

Biological target: thioredoxin glutathione reductase (TGR) from Mesocestoides vogae (Mesocestoides vogae (endogenous in tetrathyridium larvae))
Assay: SEC; 25%-50% ammonium sulfate fraction of the larval extract, dialysed against PBS, on HiLoad 16/600 Superdex 200 pg; TR and GR activities traced in the fractions

stoichiometry N: 2
Substance: thioredoxin glutathione reductase (TGR) from Mesocestoides vogae (enzyme)
